Assay: soluble on expression in E. coli; label from the status in PepcDB or PDB records

Sequence | soluble on expression in E. coli
MDGGADLYKPGEPGAMKKPKSVRQERILTELNQAPSLRVAELARRLDVSTETIRRDLDEMTEQGLLNRTYGGAVRSLSTEPSVTERHTLFVGERERIAKAAVQILKGAQVLMIGSGSTTVHTARRIAVEMKNITVLTHSFGVATVLAINPTIKVVMLPGDYHATEGATVGAHAVSFLNSFYADFTILGASGLGPDGPSDALLECGAVYSAMVSRAARTIVVADHSKHDRLFPARYAPWRDIAHVVTDKAPGEDLTESLDSSGVKLTVCLEHHHHHH | soluble
MGSDKIHHHHHHMRLLFRKAGEFFRDFVSIFKHISDDLEMYLKLDPAAESKLQVFFFYASFQGLMWYRFAHFFYKWKLKVLAYLIYYFVRVVFSMDIHPAARIAPGVVIDHGIGVVIGSTASVGRGTLIYHGVTLGTRKPCSGKRHPDVGENVMIGTGAKILGPIRVGNNAVVGANAVVLEDVPDGAVVVGVPARIVKWRRDFCDDGKTDREHSYSETRFDRLENLLETGKE | not soluble
MSLTLTLKETLLASPGVLFLDDITIEKVESEKNLMILLPGLEYLVTRDLLRTKFPEYDFTGPENVRITVEGYSSLKNAVFEEIGKKAEAKDFEAFVVKTFGTLPEKFEPQTIRVTKISKNLFSVFLRFPDTYVTLNMLLRKERNVVVLKRNINVGDVIKEEDVRLEKRNVFEIYGEPFFDVSEVVGKISRRYLKEGTVLTADMVKDPPDVVKGQVVPAYVDMGSIKVTTFVEVLENGYLGETVRAMNVESRKYVFGRVERGPVLRILEVVEGHHHHHH | soluble
MFYKFLLFDLDHTLLDFDAAEDVALTQLLKEEGVADIQAYKDYYVPMNKALWKDLELKKISKQELVNTRFSRLFAHFGQEKDGSFLAQRYQFYLAQQGQTLSGAHDLLDSLIERDYNLYAATNGITAIQTGRLAQSGLAPYFNQVFISEQLQTQKPDALFYEKIGQQIAGFSKEKTLMIGDSLTADIQGGNNAGIDTIWYNPHHLENHTQAQPTYEVYSYQDLLDCLDKNILEKITF | not soluble
MSLKIGIVKHLNARPLTWGFEKNKKHEIVPENPAILKDYLLNGTIDLGLISSIECIRNDHVLNTYYGTGVCAREKVRSILFFKNKRENFPPKQILTDNGSKTSVALVRVLIYEESGLIPYVEPTDSKLIQEKISNGIGSHMLFGDNALLAKWNPEFYEVKDLAQWWNELTGLGFIFALWASKKSLKLDDLIFIQSLEYGVSHIEEIISHESRLSSTLVREYLTKELHYKITEEDQKGFLLFREKCSQLNLLEGHHHHHH | soluble
MTETKEERVHQVFEKIYKRYDVMNSVISFQRHKAWRKDTMKRMNVQEGQSALDVCCGTADWAIALGKAVGPTGHVEGLDFSENMLSIGKKKIADERLDHVFLRHGNAMELPYADDTFDFVTIGFGLRNVPDYMQVLREMARVTKPGGKVVCLETSQPTIPVFKQLYFFYFRHVMPLFGKMFAKSYDEYSWLQESTLSFPGRDRLAQMFKEVGLTDVQVKPYSGGAAAMHLGVKESYDEESRNVTCLEHHHHHH | not soluble
MEGDTISRMMGSGVQMDGKILQTFEKSFVQVQNILDHNRLLINEINQNHESKIPDNLGRNVGLIRELNNNVRRVAHLYVDLSNNFSKSMEASSEGDSSEGRGNRRIRPA | soluble
YLASDGKTIILVGKNNLQNDELTFKMSKKGELWFHAKDIPGSHVLIKDNLNPSDEIKTDAAELAAYFSKARLSNLVQVDMIEAKKLNK | not soluble
MSLGEIWYGGTIYTMREENEKVDAIYVENGMIVDVGSKKELENRYAAVTLYDLEDKTMIPGLVDSHMHLIGHGERLLRLDLSNCTSYSEVLTLVRKRVEEAPKGSWIIGEGWNENNFTDTKDVHARDLDEISKEHPILLKRVCRHVTWVNSYILQEANITEKAEDPKGGKIGRDSSNMLTGLLYEQGQELIKHVQPEIDEAYLQSALQTAIKDCWQYGLVGGHTEDLNYYGGFRKTHNAFSHVIKEMPFKAHLLVHHEVAQERKEYENEHYIEFGAMKIFSDGSFGGRTALLSEPYEDAKETNGVAIFSREELAELVKKARDLHMPVAIHTIGDLSLEYVIDALELYPPAEGLRDRIIHCQLAREELIERMKNLQAIIDIQPVFVSSDFPSVIEKLGEHRLRYAYAWKTLLEAGLHCNGGSDAPIEQVNPFLGIYSAVTRRSFIDGVCYMPEERLTAYEAVSLFTTGSAYAIGKEEKRGQITKGYEADFTILDRNIFEIEAEEIKEVQAEMTVIDGKVVYRKDAEGHHHHHH | soluble
MAGDPMKAREVEFEGHLIDSMIFTKALDIILDLDGEFEILEFRVGKKKDDPSYARMIVFGRDDAHLEQILKELHKIGARIPDIEEVELAEAPADKVLPDGFYVTTNHPTFVRYGGEWLPVEDISMDRVIVIRDGRAYCIPIDEVVRGDRVVVGEKGVRVVPPERPRKSTVFEFMGGRVSSERPTERMIEAIAREIYELKLKGGKIAVVAGPAVDHTSARNALAALIRDGYVDLLLSGNALAVHDIEISIFGTSLGMDICKGRPVPGGNRHHLYTISKVIAAGGIKKAIEKGIIKDGIMYECVKNNVPFILAGSIRDDGPLPEVITDVMVAKKKMKEALRGINMVIMLATMLHSIAVGNLLPSYVKTICVDMNPSTVTKLMDRGTHQAIGVVTDVGLFLPLLYLKIKEIEAKELEHHHHHH | soluble
AEAAKPATAADSKAAFKNDDQKSAYALGASLGRYMENSLKEQEKLGIKLDKDQLIAGVQDAFADKSKLSDQEIEQTLQAFEARVKSSAQAKMEKDAADNEAKGKEYREKFAKEKGVKTSSTGLVYQVVEAGKGEAPKDSDTVVVNYKGTLIDGKEFDNSYTRGEPLSFRLDGVIPGWTEGLKNIKKGGKIKLVIPPELAYGKAGVPGIPPNSTLVFDVELLDVKPAPKADAKPEADAKAADSAKK | soluble
SLHEFGITQNIVAIVTEHAKGAKVQRVLLEIGKLSAIMPDAIRFCFDICTQGTVLEGATLEILEIPGLGRCRQCGGEIYLDKPFGICNCGSVQLDLITGEELKIKEIEIEELCV | soluble

— the DeepSol protein solubility set
